This passage reports enrichment results from publication PMC11969024, “Development of chemokine network inhibitors using combinatorial saturation mutagenesis” (Communications Biology, 2025).

The labels stand for the following.
B1: peptide HD2 (from tick evasin EVA4) / CCL4 (biotinylated, synthetic) (parent)
chain 1: EEDDYTAYAPLTCYFT
chain 2: APMGSDPPTACCFSYTARKLPRNFVVDYYETSSLCSQPAVVFQTKRSKQVCADPSESWVQEYVYDLELN
B2: peptide HD2 (from tick evasin EVA4) / CXCL11 (biotinylated, synthetic) (parent)
chain 1: EEDDYTAYAPLTCYFT
chain 2: FPMFKRGRCLCIGPGVKAVKVADIEKASIMYPSNNCDKIEVIITLKENKGQRCLNPKSKQARLIIKKVERKNF

In one test the parent is B1. The following applies: with CCL4 (biotinylated, synthetic); scale: log2.
For chain 1 EEDDYTAYAKLTCYFT [chain 1 P10K], the enrichment was -6.53. Still for that read-out and setting: for chain 1 EEDDYTAYAMLTCYFT [chain 1 P10M] the value was -8.07; for chain 1 EEDDYTAYANLTCYFT [chain 1 P10N], -7.59; for chain 1 EEDDYTAYAILTCYFT [chain 1 P10I], -8.01. Still for that read-out and setting: for chain 1 EEDDYTAYAHLTCYFT [chain 1 P10H] the value was -7.52.

With chain 1 EEDDYTAYARLTCYFT [chain 1 P10R], the enrichment is -8.65.

As for chain 1 EEDDQTAYAPLTCYFT [chain 1 Y5Q], the enrichment is -4.93. For the variant chain 1 EEDDGTAYAPLTCYFT [chain 1 Y5G], the enrichment was -6.68.

For the variant chain 1 EEDDKTAYAPLTCYFT [chain 1 Y5K], the enrichment is -5.17. On the same count and under the same terms, to chain 1 EEDDNTAYAPLTCYFT [chain 1 Y5N] belongs -7.28; to chain 1 EEDDATAYAPLTCYFT [chain 1 Y5A], -6.64; to chain 1 EEDCYTAYAPLTCYFT [chain 1 D4C], -8.81. Still for that read-out and setting: to chain 1 EEDDYCAYAPLTCYFT [chain 1 T6C] belongs -10.7; to chain 1 EEKDYTAYAPLTCYFT [chain 1 D3K], -4.93.

As for chain 1 EECDYTAYAPLTCYFT [chain 1 D3C], the enrichment is -9.47.

On to chain 1 CEDDYTAYAPLTCYFT [chain 1 E1C], for which the enrichment is -9.32.

As for chain 1 EEDDYTAQAPLTCYFT [chain 1 Y8Q], the enrichment is -5.93. With chain 1 EEDDYTARAPLTCYFT [chain 1 Y8R], the enrichment is -7.75.

Regarding chain 1 EEDDYTAMAPLTCYFT [chain 1 Y8M], the enrichment was -8.06. As for chain 1 EEDDYTAKAPLTCYFT [chain 1 Y8K], the enrichment is -5.64. Consider chain 1 EEDDYTAGAPLTCYFT [chain 1 Y8G], for which the enrichment was -8.28. Consider chain 1 EEDDYTACAPLTCYFT [chain 1 Y8C], for which the enrichment is -9.25.

As for chain 1 EEDDYTAYAPLTRYFT [chain 1 C13R], the enrichment is -10.1. Turning to chain 1 EEDDYTAYAPLTHYFT [chain 1 C13H], the enrichment was -8.22. As to chain 1 EEDDYTAYCPLTCYFT [chain 1 A9C], the enrichment was -9.66. Regarding chain 1 EEDDYTAYDPLTCYFT [chain 1 A9D], the enrichment is -7.8. In the case of chain 1 ECDDYTAYAPLTCYFT [chain 1 E2C], the enrichment is -9.58.

In another test the parent is B2. The following applies: with CXCL11 (biotinylated, synthetic); scale: log2.
Consider chain 1 EEDHYTAYAPLTCYFT [chain 1 D4H], for which the enrichment is -4.91. Take chain 1 EEDKYTAYAPLTCYFT [chain 1 D4K]: the enrichment was -4.01. In the case of chain 1 EEDEYTAYAPLTCYFT [chain 1 D4E], the enrichment was -3.08. Still for that read-out and setting: to chain 1 EEDGYTAYAPLTCYFT [chain 1 D4G] belongs -3.36; to chain 1 EEDAYTAYAPLTCYFT [chain 1 D4A], -5.22. Same read-out and setting: to chain 1 EEDNYTAYAPLTCYFT [chain 1 D4N] belongs -5.1; to chain 1 EEDCYTAYAPLTCYFT [chain 1 D4C], -6.38.

Consider chain 1 EEDRYTAYAPLTCYFT [chain 1 D4R], for which the enrichment is -4.23.

Take chain 1 EEDTYTAYAPLTCYFT [chain 1 D4T]: the enrichment is -5.01.

With chain 1 EEDDTTAYAPLTCYFT [chain 1 Y5T], the enrichment is -4.8. As to chain 1 EEDDETAYAPLTCYFT [chain 1 Y5E], the enrichment is -0.621. As for chain 1 EEDDCTAYAPLTCYFT [chain 1 Y5C], the enrichment is -6.3. Still for that read-out and setting: for chain 1 EEDDSTAYAPLTCYFT [chain 1 Y5S] the value was -6.24; for chain 1 EEDDATAYAPLTCYFT [chain 1 Y5A], -4.21. As to chain 1 EEDDKTAYAPLTCYFT [chain 1 Y5K], the enrichment was -2.74.

In the case of chain 1 EEDDPTAYAPLTCYFT [chain 1 Y5P], the enrichment is -3.87. As for chain 1 EEDDRTAYAPLTCYFT [chain 1 Y5R], the enrichment was -4.19. As to chain 1 EEDDVTAYAPLTCYFT [chain 1 Y5V], the enrichment is -6.41. Take chain 1 EEDDGTAYAPLTCYFT [chain 1 Y5G]: the enrichment is -4.25. Turning to chain 1 EEDDDTAYAPLTCYFT [chain 1 Y5D], the enrichment was -4.19. Consider chain 1 EEDDQTAYAPLTCYFT [chain 1 Y5Q], for which the enrichment was -2.5.

With chain 1 EEDDMTAYAPLTCYFT [chain 1 Y5M], the enrichment is -4.78. Regarding chain 1 EEDDYTAYAPLTCQFT [chain 1 Y14Q], the enrichment is -5.19.

chain 1 EEDDYTAYAPLTCEFT [chain 1 Y14E]: the enrichment is -5.9. In the case of chain 1 EEDDYTAYAPLTCRFT [chain 1 Y14R], the enrichment was -7.23. Regarding chain 1 EEDDYTAYAPLTCSFT [chain 1 Y14S], the enrichment is -6.81. For chain 1 EEDDYTAYAPLTCPFT [chain 1 Y14P], the enrichment was -5.99. For the variant chain 1 EEDDYTAYAPLTCMFT [chain 1 Y14M], the enrichment was -6.11. On to chain 1 EEDDYTAYAPLTCIFT [chain 1 Y14I], for which the enrichment was -4.41.

On to chain 1 EEDDYTAYAPLTCKFT [chain 1 Y14K], for which the enrichment was -5.3.

With chain 1 EEDDYTAYAPLTCNFT [chain 1 Y14N], the enrichment is -4.04.

chain 1 EEDDYTAYAPLTCDFT [chain 1 Y14D]: the enrichment is -4.67. Same read-out and setting: to chain 1 EEDDYTAYAPLTCYNT [chain 1 F15N] belongs -3.87. On to chain 1 EEDDYTAEAPLTCYFT [chain 1 Y8E], for which the enrichment is -3.32. For chain 1 EEDDYTAQAPLTCYFT [chain 1 Y8Q], the enrichment was -3.5. chain 1 EEDDYTARAPLTCYFT [chain 1 Y8R]: the enrichment was -5.32. Turning to chain 1 EEDDYTACAPLTCYFT [chain 1 Y8C], the enrichment was -6.82.

For chain 1 EEDDYTAPAPLTCYFT [chain 1 Y8P], the enrichment is -5. Still for that read-out and setting: for chain 1 EEDDYTAKAPLTCYFT [chain 1 Y8K] the value was -3.21; for chain 1 EEDDYTAYAPLTCYFR [chain 1 T16R], -6.32; for chain 1 EEDDYTAYAPLTCYFH [chain 1 T16H], -4.21. As for chain 1 EEDDYTAYDPLTCYFT [chain 1 A9D], the enrichment is -5.37.

Take chain 1 EEDDYTAYCPLTCYFT [chain 1 A9C]: the enrichment is -7.23. For the variant chain 1 EEDDYTAYKPLTCYFT [chain 1 A9K], the enrichment was -3.76.

On to chain 1 EEDDYTAYAPETCYFT [chain 1 L11E], for which the enrichment was -5.3. For chain 1 EEDDYTAYAPQTCYFT [chain 1 L11Q], the enrichment is -3.39. With chain 1 EEDDYTAYAPGTCYFT [chain 1 L11G], the enrichment is -7.39.

For the variant chain 1 EEDDYTAYAPNTCYFT [chain 1 L11N], the enrichment was -5.58.

As for chain 1 EEDDYTCYAPLTCYFT [chain 1 A7C], the enrichment was -6.98. As to chain 1 EQDDYTAYAPLTCYFT [chain 1 E2Q], the enrichment is -2.04.

As for chain 1 ERDDYTAYAPLTCYFT [chain 1 E2R], the enrichment is -4.27.

Turning to chain 1 ECDDYTAYAPLTCYFT [chain 1 E2C], the enrichment is -7.15. chain 1 EPDDYTAYAPLTCYFT [chain 1 E2P]: the enrichment was -4.19. With chain 1 EEDDYTAYAPLTWYFT [chain 1 C13W], the enrichment was -6.78.

On to chain 1 EEDDYTAYAPLTYYFT [chain 1 C13Y], for which the enrichment was -5.88. Regarding chain 1 EEDDYTAYAPLTKYFT [chain 1 C13K], the enrichment was -6.26. For chain 1 EEDDYTAYAPLTDYFT [chain 1 C13D], the enrichment is -6.29.

Turning to chain 1 EEDDYTAYAPLTRYFT [chain 1 C13R], the enrichment is -7.69.

As to chain 1 EEDDYTAYAPLTIYFT [chain 1 C13I], the enrichment was -5.31. In the case of chain 1 EEDDYTAYAPLTGYFT [chain 1 C13G], the enrichment is -7.57. chain 1 EEKDYTAYAPLTCYFT [chain 1 D3K]: the enrichment is -2.5. Still for that read-out and setting: for chain 1 EEADYTAYAPLTCYFT [chain 1 D3A] the value was -4.17; for chain 1 EEPDYTAYAPLTCYFT [chain 1 D3P], -4.65; for chain 1 EEHDYTAYAPLTCYFT [chain 1 D3H], -4.1. With chain 1 EEQDYTAYAPLTCYFT [chain 1 D3Q], the enrichment is -2.12. As for chain 1 EEVDYTAYAPLTCYFT [chain 1 D3V], the enrichment is -6.48. On to chain 1 EERDYTAYAPLTCYFT [chain 1 D3R], for which the enrichment was -4.59.
